Test results from patent publication US20170052184A1 (published 2017).

Key:
[1] = biological target: T1, HCV Core1-169 (hepatitis C virus (HCV-1), UniProt P26664 1-169); test: SPR sandwich, capture mAb C11-9
T1 sequence: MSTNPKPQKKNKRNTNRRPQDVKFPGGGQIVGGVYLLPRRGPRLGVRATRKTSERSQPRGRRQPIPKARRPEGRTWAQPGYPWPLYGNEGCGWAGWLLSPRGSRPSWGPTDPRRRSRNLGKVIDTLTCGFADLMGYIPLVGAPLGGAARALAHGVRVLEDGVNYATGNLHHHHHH

[2] = biological target: T1, HCV Core1-169; test: SPR sandwich, capture mAb C11-14
[3] = biological target: T2, HCV Core 134-171-TT Peptide (hepatitis C virus (HCV-1 numbering) …); test: SPR, captured mAb, peptide analyte
T2 construct: also called ALRZ-9 peptide

[4] = biological target: T1, HCV Core1-169; test: SPR sandwich, capture mAb C11-7
[5] = biological target: T1, HCV Core1-169; test: SPR sandwich, capture mAb C11-3
[6] = biological target: T3, HCV Core1-169 (HCV-1, UniProt P26664 1-169); test: EIA, core1-169 coated on plate; note: test concentration or dose not given here
T3 construct: also called recombinant HCV core antigen
T3 sequence: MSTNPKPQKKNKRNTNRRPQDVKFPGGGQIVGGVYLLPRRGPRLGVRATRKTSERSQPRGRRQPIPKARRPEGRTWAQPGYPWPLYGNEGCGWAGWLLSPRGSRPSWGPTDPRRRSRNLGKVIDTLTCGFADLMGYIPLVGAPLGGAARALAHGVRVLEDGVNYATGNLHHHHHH

[7] = biological target: T3, HCV Core1-169; test: EIA, core1-169 captured by mAb 14-153-229; note: test concentration or dose not given here

Binder | OD (A492) [6] | OD (A492) [7] | also measured
HCV 208B-672 (antibody, V domains shown) VH: EVKLVESGGSLVQPGGSLKLSCAASGFNFNTYAMSWVRQTPEKRLEWVAYISNGGGNTYYVDTVKGRFTISRDNAKNTLYLRMSSLKSEDTAMYYCARHGLYWGYSMDYWGQGTSVTVSS VL: DIQMTQSPSSLSASLGERVSLTCRASQDIGGSINWLQQEPDGTIKRLIYATSSLDSGVPKRFSGSRSGSDYSLTISSLESEDFVDYYCLQYASSPPTFGGGTKLEIKR |  |  | expected percent binding [1]: ≤ 1%; expected percent binding [2]: 2.7%; Kd [3]: 160 pM; koff [3]: 0.00034 s⁻¹; kon [3]: 2.2e+06 M⁻¹ s⁻¹; expected percent binding [4]: 2.8%; expected percent binding [5]: 2.6%
HCV 208A-557 (antibody, V domains shown) VH: QGQMQQSGAELVKPGASVKLSCKTSGFTFSSSYISWLKQKPGQSLEWIAWIYAGTGNTNYNQKFTDKAQLTVDTSSSTAYMQLSSLTTEDSAIYYCAISGTGFTYWGQGTLVTVSA VL: DIALTQSPASLAVSLGQRATISCRASQSVSTSRYSYMHWYQQKPGQPPELLIKYASNLESGVPARFSGSGSGTDFTLNIHPVGEEDTATYYCQHSWDFPFTFGSGTKLEIKR | 1.4 OD | 2.39 OD | 
HCV 208A-920 (antibody, V domains shown) VH: not shown VL: DIVLTQSPASLAVSLGQRATISCRASQSVSTSRYSYMHWYQQKPGQPPKLLIKYASNLESGVPARFSGSGSGTDFTLNIHPVAEEDTAAYYCQHSWEFPFTFGSGTKLEIKR | 1.14 OD | 1.82 OD | 
HCV 208A-830 (antibody, V domains shown) VH: EVRLQQPGPEVEKPGASVKISCKTSGYTFTEYAIHWVKQSHGESLEWIGGINPSNGDPIYNQIFKDKATLTVDRSSNTAYMGLRSLTVGDSGVYFCVRRQLDYFDFWGQGASLTVSS VL: DIVLTQSPASLAVSLGQRATISCRSSQSVSTSRYSYLHWYQQKPGQPPKLLIKYASNLESGVPARFSGSGSGTDFTLNIHPVGEEDPATYYCQHSWEFPFTFGSGTKLEIKR | 1.16 OD | 2.09 OD | 
HCV 208B-560 (antibody, V domains shown) VH: EVQLQQSGPELEKPGASVKISCKTSGYTFTEYAMHWVKQSHGMSLEWIGGINPSNGNAIYNQIFKDKATLTVDRSSSTAYMGLRSLTFGDSGVYFCVRRQLDFFDYWGQGASLTVSS VL: DIVVTQSPASLAVSLGQRATISCRASQSVSTSRYSYLHWYQQKPGQPPKLLIKYASNLESGVPARFSGSGSGTDFTLNIHPVGEEDTATYYCQHSWEFPFTFGSGTKLEIKR | 1.07 OD | 1.3 OD | 
HCV 208A-134 (antibody, V domains shown) VH: QGQMQQSGAELAKPGASVKLSCKTSGFTFSSSYISWLKQKPGQSLEWIAWIYAGTGNTNYNQKFTDKAQLTVDTSSSTAYMQLSSLTTEDSAIYYCAISGTGFTYWGQGTLVTVSA VL: EVLMTQSPLSLPVSLGDQASISCRSSQSLEHTNGNTYLEWFLQRPGQPPKLLIYKVSSRFSGVPDRFSGSGSGTDFTLKISRVEAEDLGVYYCFQGSHVPFTFGSGTKLAIKR | 0.1 OD | 0.13 OD | 
HCV 208B-556 (antibody, V domains shown) VH: QLQQSGPVLVKPGASVMISCKTSGYTFTENAMHWVKQSHGKSLEWIGGVNPNNGDTIFNQKFKGKATLTVDKSSSTAFMEFRSLTSEESTVYYCVRRELDFFDYWGQGTSVTVSS VL: DIVLTQSPASLAVSLGQRATISCRASQSVSTSRYSYMHWYQQKPGQPPKLLIKYASNLESGVPARFSGSGSGTDFTLNIHPVAEEDTATYYCQHSWEFPFTFGSGTKLEIKR | 0.74 OD | 1.35 OD | 
HCV 208A-126 (antibody, V domains shown) VH: QLQQSGPVLVKPGASVMISCKTSGYTFTENAMHWVKQSHGKSLEWIGGVNPNNGDTIFNQKFKGKATLTVDKSSNTAFTELRSLPSEESTVYYCVRRGLDFFDYWGQGTSVTVSS VL: DIVLTQSPASLAVSLGQRATISCRASQSVSTSRYSYMHWYQQKPGQPPKLLIKYASNLESGVPARFSGSGSGTDFTLNIHPVAEEDTAAYYCQHSWEFPFTFGSGTKLEIKR | 0.69 OD | 1.2 OD | 
HCV 208A-222 (antibody, V domains shown) VH: EVQLQQSGPELEKPGASVRISCKTSGYTFTEYAMHWVKQSHGKSLEWIGGINPNNGNAIYNQIFKDKATLTVDRSSSTAYMGLRSLTFGDSGVYFCVRRQLDYFDYWGQGASLTVSS VL: DIVVTQSPASLAVSLGQRATISCRASQSVSTSRYSYLHWYQQKPGQPPKLLIKYASNLESGVPARFSGSGSGTDFTLNIHPVGEEDTATYYCQHSWEFPFTFGSGTKLEIKR | 1.06 OD | 2.07 OD | 
HCV 208A-334 (antibody, V domains shown) VH: not shown VL: DIVLTQSPASLAVSLGQRATISCRASQSVSTSRYSYMHWYQQKPGQPPKLLIKYASNLESGVPARFSGSGSGTDFTLNIHPVAEEDTAAYYCQHSWGFPFTFGSGTKLEIKR | 1.28 OD | 1.9 OD | 
HCV 208A-692 (antibody, V domains shown) VH: QGQMQQSGAELAKPGASVKLSCKTSGFTFSSSYISWLKQKPGQSLEWIAWIFAGTGNTNYNQKFTDKAQLTVDTSSSTAYMQLSSLTTEDSAIYYCAISGTGFTYWGQGTLVTVSA VL: EVLMTQSPLSLPVSLGDQASISCRSSQSLEHSNGNTYLEWFLQRPGQPPKLLIYKVSSRFSGVPDRFSGSGSGTDFTLKISRVEAEDLGVYYCFQGSHVPFTFGSGTKLAIKR | 0.07 OD | 0.57 OD | 
HCV 208A-605 (antibody, V domains shown) VH: EVQLQQSGPELEKPGASVKISCKTSGYTFTEYAIHWVKQSHGMSLEWIGGINPSNGNAIYNQIFKDKATLTVDRSSSTAYMGLRSLTFGDSGVYFCVRRQLDFFDYWGQGASLTVSS VL: DIVVTQSPASLAVSLGQRATISCRASQSVSTSRYSYLHWYQQKPGQPPKLLIKYASNLESGVPARFSGSGSGTDFTLNIHPVGEEDTATYYCQHSWEFPFTFGSGTKLEIKR | 0.55 OD | 2.21 OD | 
HCV 208A-133 (antibody, V domains shown) VH: QLQQSGPVLVGPGASVMISCKTSGYTFTENAMHWVEQSHGKSLEWIGGVNPNNGDTIFNQKFKGKATLTVDKSSSTAFMEFRSLTSEESTVYYCVRRELDFFDYWGQGTSVTVSS VL: DIVLTQSPASLAVSLGQRATISCRASQSVSTSRYSYMHWYQQKPGQPPKLLIKYASNLESGVPARFSGSGSGTDFTLNIHPVAEEDTATYYCQHSWEFPFTFGSGTKLEIKR | 1.73 OD | 1.46 OD | 
HCV 208A-741 (antibody, V domains shown) VH: QLQQSGPVLVKPGASVMISCKTSGYTFTENAMHWVKQSHGKSLEWIGGVNPNNGDTIFNQKFKGKATLTVDKSSSTAFMELRSLTSEESTVYYCVRRELDFFDYWGQGTSVTVSS VL: DIVLTQSPASLAVSLGQRTTISCGASQSVSTSRFSYMHWYQQKPGQPPKLLIKYASNLESGVPARFSGSGSGTDFTLNIHPVAEEDTAAYYCQHSWEFPFTFGSGTKLEIKR | 1.2 OD | 1.9 OD | 
HCV 208A-110 (antibody, V domains shown) VH: not shown VL: DIVLTQSPASLAVSLGQRATISCRASQSVSTSRYSYMHWYQQKPGQPPKLLIKYASNLESGVPARFSGSGSGTDFTLNIHPVAEEDTAAYYCQHSWEFPFTFGSGTKLEIKR | 1.6 OD | 1.87 OD | 
HCV 208B-251 (antibody, V domains shown) VH: QLQQSGPVLVKPGASVKISCKTSGYTFTENAMHWVKQSHGKSLEWIGGVNPNNGDTIYNQKFKGKATLTVDKSSSTAFMELRSLTSEESPVYFCVRRELDFFDYWGQGTSVTVSS VL: DIVLTQSPASLAVSLGKKATISCRASQSVSTSRYSYMHWYQQKPGHPPKLLIKYASNLESGVPARFSGSGSGTDFTLNIHPVAEEDTAAYYCQHSWEFPFTFGSGTKLEIKR | 0.79 OD | 1.39 OD | 
HCV 208A-159 (antibody, V domains shown) VH: QLQQSGPAQVKPGASVMISCKTSGYTFTENAMHWVKQSHGKSLEWIGGVNPNNGDTIFNQKFKDKAALTVDKSSSTAFMELRSLTSEESTVYYCVRRELDFFDYWGQGTSVTVSS VL: DIVLTQSPASLAVSLGQRATISCRASQSVSTSRYSYVHWYQQKPGQPPKLLIKYAANLESGVPARFSGSGSGTDFTLNIHPVAEEDAAAYYCQHSWEFPFTFGSGTKLEIKR | 0.57 OD | 1.29 OD | 
HCV 208A-442 (antibody, V domains shown) VH: DVQLQESGPGLVNPSQSLSLTCSVTGYSITSGYYWIWIRQFPGNKLEWMGYIKYDGGNNYSPSLKNRISIARDTSKNQFFLKLNSVTIEDTATYYCTRGSDSFDYWGQGTTLTVSS VL: DIVLTQSPASLAVSLGQRAIISCKASQSVSFAGTNLMHWYQQKPGQQPKLLIYRASNLETGVPTRFSGSGSRTDFTLNIHPVEEDDAATYYCQQSREYYTFGGGTKLEIKR | 1.61 OD | 0.36 OD | 
HCV 208A-638 (antibody, V domains shown) VH: QGQLQQPGAEFVKPGASLKLSCRASGYTFTSYWIHWVKQRPGQGLEWIGEVDPSDSYINQNEKFRGKATLTVDKSSSTAYMQLGSLTSEDSAVYYCARHYYGVLDSWGQGTALTVSS VL: QIVLTQSPTIMSASLGERVTMTCTASSSVSSSYLHWFQQKPGSSPKLWIYSTSNLASGVPPRFSGSGSGTSYSLSISSVEAEDVATYYCLQFHRSPWTFGGGAKLEIKR | 1.07 OD | 2.24 OD | 
